The series deals with Saccharomyces cerevisiae. The series can be described thus: transcriptional activation domain activity (GFP:mCherry ratio, weighted mean of sorted bins, harmonized to initial dataset scale) (arbitrary fluorescence ratio units); higher = stronger transcriptional activation. The conditions noted are these: beta-estradiol 1 µM; induction time 4 h. The gist of the method:
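Values are activation activity, found as the read-weighted mean of bin median fluorescence, averaged across barcodes and then mapped linearly onto the initial dataset scale. Barcoded protein tiles fused to an estradiol-inducible synthetic transcription factor were integrated at the URA3 locus of GFP-reporter yeast diploids. Cells were induced for 4 hours at 30 °C with 1 uM beta-estradiol in SC, sorted into 8 bins by GFP:mCherry ratio, and barcode-sequenced, with tiles under 50 reads discarded.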

Here are results for 74 sequences from the supplement of paper PMC12636428.

Turning to “WYGFLVTWGLLVLFIICFYFFISVSCCAFCVLFSSTWSFGRLFLLTFPLILLL”, the “transcriptional activation domain activity” value was determined as 41700.
In the case of “WYHHVPLCILVLLLLAPHPSILYVLLNYHYLTLHATHYFIVHLLTIYAFSFLA”, the “transcriptional activation domain activity” value is 45900.
The figure for “WYHYLPLCGTIFLILLPQPSWLWILVDFHLQTLHRPGLFIIHLLVSYTLIFMI” is 38500; for “WYTTISSTGLLSLLLYSLPFQPARLWVLGGILYIFSLVSFCALLLVHLVRFLV” it is 47500.
The figure for “WYWLATTMYFLYGESVIYYFKHVVLVDKVLLPLATHHRFISFMLYIIGFVFFV” is 60400.
Next, “YAASSASPAPPRKYPPARKASPSPSPTPPRTRKSSASALRRPASTPTPPAPSP”: 23200; “YADMLMRIWSVWEFALWQYVSNEEFMGLLGFSRLRFRRMYLLVNNGCLFWRIF”: 72400; “YADWLLEPEQNNGTWVADVLWPAINLDLQWISSHWNQSSWDLWWPPVWGGSYW”: 67800.
On to “YADWLLEPEQNNGTWVSDVLWPAINLDLQWISLHWNESSWDLWWPPVWGGSYW”, for which the “transcriptional activation domain activity” value stood at 52100.
Next, “YAEWLIEPEQNNGTWVADVLWPAINLDLQWISLHWNQSSWDLWWPPVWGGSYW”: 53200; “YAEWLLQPEQHNGTWVADVLWPAINLDLQWISQHWNESSWDLWWSPVWAGSYW”: 66400.
“YAILYFLFFGAWGLRIMSHLPSWWYNCPQFWIDYPHWQMTPELKCYYLMQASY”: the “transcriptional activation domain activity” value turned out to be 73600.
Next, “YALEWNGLVVRSFAYHTVFGIAKVGFFLYHFLFSSFVFSLLLSLVIFFFFFFF”: 32600.
The figure for “YALIHFFRLYRSGHGPIRMFFLHIQALYNLFNLVFSWFALANLWLAFSIIIRL” is 75800; for “YASVLSLIMFFPLPFLSGEILDISRNCYILDVFFHWLMVVCGGLGSWAVFWST” it is 78700; for “YAVPNDFVVTGGLLLLRYDRLNELPLGTRANSSVLVCVYRTWIALMRYLLAGP” it is 62800.
Next, “YCAINCGGIDGLSLFMKIQWIANLDYLDIELLFGGIYYYFVCLLLVLLLLLWL”: 42700.
With “YCDAKPGHSLVFAGHAGELELYLDKSCDADSIMTRENLGSLNRFVRLLLLLAK”, the “transcriptional activation domain activity” value turned out to be 38300.
The figure for “YCGDDMHSLRIVVAVLALLTTLKSIHAFAIVWVQSIVHFGDLQGAILLNYTAW” is 76900; for “YCGSLGCMILVAGIKLLRLLKHHLTVQRALRSNIGKIKAGMLKVKIIMIVGCV” it is 66400.
Next, “YCLLYWVWWFLAFSCWVFCLIYIFAIHCLIWVLVWLSVCFLLMGGYLFFCKED”: 30600; “YDGGRLIVAIPFVCKVLEQAGRSTVFKPPNPWLMAVVRVLVELYKFAELKLNL”: 53800; “YDILKCVLPCIVQLLPRNSPLVHCIRAYQCYRIMIGLQCMTERRLKHLQELIK”: 44800.
The figure for “YDIVCQWWRNLVDRLKELPPLVRISLILELCQFVIPKMHIHSHTLLCQLLFSL” is 59100.
As to “YDKKTNVLGFDDGTFDNKVFNRTNFEEKAPFDIPLDEFFTELEKHSNVSQFNT”, the “transcriptional activation domain activity” value came to 112000.
Next, “YDLLSVKDLHIQDRLLSARIVLSDISFLKRILMLLGVPDGLSSRLVSHLWCAV”: 58400.
For the sequence “YDTPSLQMMTIHKSFFGIVNDDTFHWKGLSKLSLDSVPGCRLLSILLLCSATL”, the “transcriptional activation domain activity” value was 73200.
In the case of “YEASNHPEFDLNADVGLVIQVLEQTHSHTPIKLCSLIVKLQVVSGFLSYLESD”, the “transcriptional activation domain activity” value was found to be 32800.
Regarding “YECALGIYSCVSFFVGVFYYIFIIFLSPIIFILLIILPLRISFVLCMAILLFG”, the “transcriptional activation domain activity” value worked out at 28600.
Next, “YEHSFEIWLACTVVFPGAGNIGFTLLEYRLGHRSLASSFFENITWIPFFFFFF”: 53900.
Next, “YEIKRRLQVCRAVLDEHINPYEFKHHTVYREALLKLMYFHCVISLRLVLSWTD”: 65300.
Next, “YETRPHAHVQEAVLTNRLTSAALYNPGRIAVLPLVCVWRDERTVVVFVHLVLT”: 21400.
Consider “YFEIAGLTFFFYWYFYLLVGGIDCAWNKFVYVMVSHMSTMIVHVQITLSHFAM”, for which the “transcriptional activation domain activity” value amounted to 32700.
For the sequence “YFILFPFHHFLSPSLHSAPAFWCTLLLFTYVLVFFFGTLYHMVMFCFVCLFIC”, the “transcriptional activation domain activity” value is 94500.
The figure for “YFLAKMLLVWIVLALQTCEVSFSFVDTEHAYRGGVLRFVETLVKWAMEQNMSH” is 45400.
For the sequence “YFLGIFMYFLYGESVIYYFKHVLLVDRILLPLATHHRFISFMLYLIGFVFFVG”, the “transcriptional activation domain activity” value was determined as 65800.
The figure for “YFLLSILFFFFSNNFTFTLLYLLHASYHIQSLYRHILVSVFCNYPSLLLFFFL” is 53000; for “YFMVYFIFYRNLFARLRSFDQFALVQLMSSFWVCIWYPFSMTSLCHRVVQYFN” it is 69300.
For “YFRAEAMKTFFSRNYWQLEVRLYVPTKRKGIFHGKDWRINVLLGMWWVVVHIA”, the “transcriptional activation domain activity” value worked out at 55100.
“YFVLLPPTFILLAFPLLVWEFCWLSSSDFLCLLSMGFLFISLSFFFFFFLGNW”: the “transcriptional activation domain activity” value is 40400.
For “YFVVRGFLFSSAVGCLGLRLGLGLFKRVIYWDQKLLLFLFLFPFFFPPLFSTR”, the “transcriptional activation domain activity” value was 60900.
Next, “YFVYLLQLIYYICFSIGVSFSMKVFDYVTFMDSITGHAGHMLCVCIFFLIGAV”: 75800; “YFWVLGAIPYFVFHSAFCLLWSLFFWFSCWYLSFKILLFRCFFFLFYYSMPSQ”: 55200; “YFYGLERRHVTCSQLAYYLCDKALTPMFCGGRVGNDCFDPWGRLLTYWCFLPL”: 77300.
The figure for “YFYMRLISCLGLIAHSPMLWATGHNSARHELIQKMDFFPKRIGYLLSRLCVLI” is 51600; for “YGADDFFFPPEGCDNNMLYPQTATSWNVLPPQAMQPAPTYVGRPYTPNYRSTP” it is 71900.
The figure for “YGALGDNTVTLRRPDDSDIVVLFDDMVVHAWIKMLIVAKLICCVILRRTAALG” is 46500; for “YGARPAAAAEEEEAAEPAEEEAAGEATEAEAGEEEAEATGEEETAEGEGAEGA” it is 25500; for “YGCNELIFNPLIDWWRKGPITRQLRTFMWSDAPLHYKIGMLSYMFSYYALSGA” it is 36300.
On to “YGFGGFLSVPLLFFIAFEFPRLHSLLYQLYLFVCVWSWAYYSTIIMFSCHFYP”, for which the “transcriptional activation domain activity” value amounted to 57500.
Next, “YGILTLQYLVGVIWVLDTLHTIFVTHMVYTYLVTNFGDYLALGHNIWSFNLHV”: 37100.
The figure for “YGLIYSILLHLCAVFISSLRRLTVLRELLRMLFLFSCFWFAVSISYMSVLYTI” is 49300; for “YGVHLLARFAWWFPSMSAIIAKLEGTINKLHILSHKELCQIIHNLNWLLYVGL” it is 71400.
Next, “YGVPIPQNSPATTTNLSGSVDEPQYQRRNIDFVRYDEEYVYHEDMDDELTMLH”: 28400; “YHALKVYRGLGLLLVNGVTGICLSICVIVVACFGHFHFSPYWVLQWAVMSRIV”: 63500.
In the case of “YHFALSYKRWINRVIIMIWCKLWWLRWCAFMQLFFRRNLRYNFWWRWIRVAGV”, the “transcriptional activation domain activity” value was 56700.
For “YHFCYHLRLYLYAFQPPLFLRLCHFFSYDGWYLGFTWGFFLFFRFHFPIPSFL”, the “transcriptional activation domain activity” value worked out at 45900.
The figure for “YHTRNRLLLLCAQAHELAVLGVRELARCLRYLPKVHYMPVHWSTIFTWAEFCA” is 75600; for “YHVQQSNIQLYDNDQVHIFLRKHFLYWLEALSLIGRLYEGVLALKILESILTL” it is 61500.
Next, “YIAPCGSWTPYMNLMLGGTVCIFIGFDVFSPFSYRGFITNYFGLFWFCIMFIF”: 53600; “YIAPCGTWTPYMNLFLGSTVCIFIGFDVFAPFSYRGLITNYFGLLWFCFMFLF”: 78400; “YIATGRGFATTRISFSILYSRFAGPSIYMGMRNLLLLLYATIAIWMPHLIYFW”: 48100.
Regarding “YICQYHGSLIGKHFKSLMQVMPFLIYDLVAQDILCAWNIIGVLVVLLWHTEIE”, the “transcriptional activation domain activity” value turned out to be 81900.
The figure for “YIFMISLSSYSLSLINTLVSFGLLLLYTPSYRLWGWNPPFRAPKIIIFLFFLS” is 48300; for “YIIPFAWLAAIGHFAVSLVIFDFAPLIHTWDVTLETLSHWLFYFRLSSILYNF” it is 35200.
Next, “YIKGVVLALWILDTFGMCLIFHILYWYLITNYGNPLSITEPIWSIILHIMVTA”: 48500; “YIKVLVAVLFVLDTLHVYYLSATFWVVCIRGRLDISGLTVLPWQTPASILMTV”: 42300; “YILARYSIFFLYYLQFSRGYIPEYLNPTLPSYEEIESWLFLKTVWFQVLIWTV”: 65500.
The figure for “YILAVGLILRLISYLSRAKVRLMYHWSELWRNLLSLIRFLNTYSADLLSSSTP” is 66700; for “YILRLFRDYVFFQVDANGKRTFDLGHMMECLLRMDCGSDELICLTSSDEKNVI” it is 49100.
For “YILSSLVTYKGIINHNDQSILILGIPKLHRLLMENVHVLHLLINSCITTLASC”, the “transcriptional activation domain activity” value came out at 44000.
As for “YILYMLRMSVRELTRSELLIVRLGRPTKLIIAGNWEINLLGIFVGLGIVCTEV”, the “transcriptional activation domain activity” value was found to be 59400.
Next, “YINAMLGLPRSISPDDFDQTLPLDLSDENITEVAYLPENQHSVLSSTGISNEH”: 58400; “YINCGIKMFDPSSIITRRYIRMWPRKQANRVLGMLDKMSQSGGFTKVFFRLLY”: 58000.
